From publication doi:10.1101/2022.09.20.508747, “Affinity-matured homotypic interactions induce spectrum of PfCSP-antibody structures that influence protection from malaria infection” (bioRxiv, 2022) come the findings set out here.

Numbering of substitutions follows the chain as printed. Primed or numbered codes have the meaning given here. No end group written: not given here. Biotin′ = biotin

T1: NPNA8 peptide, biotinylated (for BLI) (Plasmodium falciparum)
T1 construct: source: synthetic peptide, InnoPep Inc
T1 chain: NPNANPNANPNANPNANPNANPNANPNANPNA

T2: NPNA4 peptide, biotinylated (for BLI) (Plasmodium falciparum)
T2 construct: source: synthetic peptide, InnoPep Inc
T2 chain: NPNANPNANPNANPNA-{Biotin′}

T3: NPNA8 peptide (for cryo-EM) (Plasmodium falciparum)
T3 construct: source: synthetic peptide, InnoPep Inc
T3 chain: T1 chain

B1: 311 Fab (Fab, V domains shown)
VH: QVQLVESGGGVVPPGRSLRLSCATSGFTFSNYGMHWVRQAPGKGLEWVAIIWYDGSRNFYAASVEGRFTISRDNSKNTLYLQMNSLRVEDTAVYYCARAAYYDTSGYGDYWGQGTLVTVSS
VL: QSVLTQPPSVSGAPGQTVTISCTGGSSNIGAGYDVHWYQQLPGTAPKLLIYGNINRPSGVPDRFSGSKSGTSASLAITGLQAEDEADYYCQSYDRRLSGSWVFGGGTKLTVL
notes: source: ExpiCHO cells, purified (mAb Select PrismA or Capture Select, SEC)
B2: 311R Fab (Fab, V domains shown)
VH: B1 VH with N31S, R57N, N58K, E65K
VL: B1 VL with R95S, R96S
notes: also called Fab311R; germline-reverted 311; source: ExpiCHO cells, purified (mAb Select PrismA or Capture Select, SEC)
B3: 334 Fab (Fab, V domains shown)
VH: QVQLVESGGGVVQPGRSLTLSCAASGFTFSNYGMHWVRQTPGKGLAWVAIIWYDGSKTYYEDSVKGRFTISRDNSKNTLYLQMNSLRVDDTAVYYCARVRHSSSRHGSAFDLWGQGTLVTVSS
VL: VIQMTQSPSTLSASVGDRVTITCRASQSVSTWLAWYQQKPGQGPKLLIYEASSLESGVPSRFSGSGSGTEFTLTISSLQPDDFATYYCQQYNSYSFWTFGQGTKVEIK
notes: also called mAb 334; source: ExpiCHO cells, purified (mAb Select PrismA or Capture Select, SEC)
B4: 239 Fab (Fab, V domains shown)
VH: QVQLVESGGGVVQPGRSLRLSCAASRLTFRNFGMHWVRQTPGKGLEWVAVIWHDGSNKFYADSVEGRFTISRDNSKNTLYLQMNSLRDEDTAIYYCAKDWGGASDRVFDYWGRGTLVIVSS
VL: DIQMTQSPSTLSASVGDRVTITCRASQSVSTSLAWYQQKPGKAPNLLIYQASTLYRGVPSRFSGSGSGTEFTLTIGSLQPDDFATYYCQHYNSYSRITFGQGTRLEIK
notes: also called mAb 239; source: ExpiCHO cells, purified (mAb Select PrismA or Capture Select, SEC)
B5: 239R Fab (Fab, V domains shown)
VH: B4 VH with R30S, N31S, F32Y, E65K
VL: B4 VL with R56T
notes: also called germline-reverted 239; source: ExpiCHO cells, purified (mAb Select PrismA or Capture Select, SEC)
B6: 356 Fab (Fab, V domains shown)
VH: QVQLVESGGGVVQPGRSLRLSCAASGFTFRNFGMHWVRQTPGKGLEWVAVIWHDGSNKFYADSVEGRFTISRDNSKNMIYLQMNSLRVEDTAIYYCARDSLFYDHDNSGYYGYWGQGTLVTVSS
VL: QIVMTQSPATVSVSPGERATLSCRASRSVTSKLAWYQQKPGQAPRLLIYGASTRATGIPARFSGSGSGTEFTLTISSLQSEDFAVYFCQQYNNGFTFGPGTKVDFK
notes: also called mAb 356; source: ExpiCHO cells, purified (mAb Select PrismA or Capture Select, SEC)
B7: 356R Fab (Fab, V domains shown)
VH: B6 VH with R30S, N31S, F32Y, E65K
VL: B6 VL with Q1E, R27Q
notes: also called germline-reverted 356; source: ExpiCHO cells, purified (mAb Select PrismA or Capture Select, SEC)
B8: 337 Fab (Fab, V domains shown)
VH: QVQLVESGGGVVQPGRSLRLSCAASGFSFSTYGMHWVRQAPGKGLEWVALIWHDGSKKFYSESVRGRFTISRDNSMDTLYLQMSSLRAEDTAVYYCARDGADYFDSTGGAFDIWGQGTMVIVSS
VL: EIVMTQSPATLSVSPGERATLSCRASQSVSSNLAWYQQKPGQAPRLLIYGASTRATGIPARFSGSGSGTEFTLTISSLQSEDFATYYCQQYKTWWTFGQGTKVEIK
notes: also called mAb 337; source: ExpiCHO cells, purified (mAb Select PrismA or Capture Select, SEC)
B9: 364 Fab (Fab, V domains shown)
VH: QVQLVESGGGVVQPGGSLRLSCAASGFTFSGYGMHWVRQVPGKGLEWVAIIWFDGSQKYYADSVQGRFTISRDNSKKTLFLRMNSLRAEDTAVYYCAKVHDDEPTQDYWGQGTLVTVSS
VL: DIQMTQSPSTLSASVGDRVTITCRASQGISTSLAWYQQKPGKAPKLLIYKASSLESGVPSRFSGSGSGTEFTLTITSLQPEDFATYYCQQYKRYWTFGQGTKVEIK
notes: also called mAb 364; source: ExpiCHO cells, purified (mAb Select PrismA or Capture Select, SEC)
B10: 227 Fab (Fab, V domains shown)
VH: QVQLVQSGGGVVQPGRSLRLSCVTSGFTFPAFGMHWVRQAPGKGLEWVAVIWYDGSKKYYADSVRGRFTISRDNSRNTLYLQMHSLRAEDTAVYYCARVKNYESSGYSQCLDYWGQGVLVTVAS
VL: QSVLTQPPSVSGAPGQRVTISCTGSSSNIGAGYDVHWYQQLPGTAPKLLIYGNGNRPSGVPDRFSGSKSGTSVSLAITGLQAEDEADYYCQSYDSSLSAFVFGTGTKVTVL
notes: also called mAb 227; source: ExpiCHO cells, purified (mAb Select PrismA or Capture Select, SEC)

The target in the first assay is T1, NPNA8 peptide, biotinylated (for BLI). Put plainly: BLI. To be noted: both partners purified.
On to B1, for which the binding result was “binds”.

Take B2: the binding result is on record as “binds”.

For the molecule B3, the binding result is on record as “binds”.

Consider B4, for which the binding result was “binds”.

With B5, the binding result is reported as “binds”.

For the molecule B6, the binding result was “binds”.

Turning to B7, the binding result is “binds”.

As for B8, the binding result was “binds”.

Turning to B9, the binding result is recorded as “binds”.

The target of a further assay is T2, NPNA4 peptide, biotinylated (for BLI). Put plainly: BLI. The note with it: both partners purified.
As for B1, the binding result is recorded as “binds”.

Regarding B2, the binding result is on record as “binds”.

With B3, the binding result is on record as “binds”.

B4: the binding result is “binds”.

Consider B5, for which the “fold lower apparent affinity than 239” value is ~2 fold.

With B6, the binding result is reported as “binds”.

Consider B7, for which the “fold higher apparent affinity than 356” value is ~2 fold.

For B8, the binding result is “binds”.

As for B10, the binding result is given as “binds”.

On to B9, for which the binding result is “binds”.

The target in the next assay is T3, NPNA8 peptide (for cryo-EM). Kind of assay: cryo-EM structure. The note with it: both partners purified.
In general, stoichiometry N refers to the number of molecules, sites or subunits per partner or assembly. For B10, the “stoichiometry N” value was 4 Fabs per NPNA8 peptide.
